In publication PMC6219536, “Strategic single point mutation yields a solvent- and salt-stable transaminase from Virgibacillus sp. in soluble form” (Scientific Reports, 2018):

Tests used:
[1] = target: VbTA T16F (transaminase from Virgibacillus sp. 21D, T16F mutant) (Virgibacillus sp. 21D); test: SEC; Superdex 200 (10/300) GL, 20 mM phosphate buffer pH 8.0, 150 mM NaCl, 0.2 mL/min, 4 °C, calibrated with MW markers
VbTA T16F = target: T1, VbTA T16F (Virgibacillus pantothenticus, UniProt A0A4P1LYG1); test: X-ray crystal structure, […] Å; type: binding; details: active site; non-covalent, no aldimine bond with K273
T1 construct: N-terminal His-tag (pET100-D-TOPO), codon-optimised, E. coli BL21(DE3), His-trap purified; native 448 residues (1350 bp); homodimer 104 kDa; residues 2-444 in crystal
T1 sequence (A0A4P1LYG1 entry or part of it, stated change not applied): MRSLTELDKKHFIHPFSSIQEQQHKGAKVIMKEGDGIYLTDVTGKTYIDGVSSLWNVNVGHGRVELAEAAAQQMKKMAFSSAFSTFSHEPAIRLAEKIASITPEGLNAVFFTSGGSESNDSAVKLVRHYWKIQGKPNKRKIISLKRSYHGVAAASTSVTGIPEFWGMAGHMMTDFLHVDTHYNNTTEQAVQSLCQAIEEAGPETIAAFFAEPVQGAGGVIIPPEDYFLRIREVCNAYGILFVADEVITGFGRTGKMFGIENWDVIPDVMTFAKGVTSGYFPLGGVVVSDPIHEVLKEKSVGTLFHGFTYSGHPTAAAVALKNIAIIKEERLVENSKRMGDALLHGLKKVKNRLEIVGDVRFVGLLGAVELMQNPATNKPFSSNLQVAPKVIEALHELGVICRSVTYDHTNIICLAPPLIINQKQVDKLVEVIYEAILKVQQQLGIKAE

| stoichiometry N [1] | Molecule | X-ray crystal structure, 2.0 Å (VbTA T16F) |
| --- | --- | --- |
| 2 | VbTA T16F (transaminase from Virgibacillus sp. 21D, T16F mutant) (enzyme) |  |
|  | Cc1ncc(COP(=O)(O)O)c(C=O)c1O [PLP] | One molecule of PLP was bound at the active site |
